In US20230133118A1, “COMPOSITIONS AND METHODS FOR TREATING CANCER” (Adagene AG, priority 2020, published 2023):
Like-named read-outs stand apart in the source and are kept apart here.

[1] = G3, cols c1,3,5,7,9,11,13=0.03,0.1,0.3,1,3,5,10 mg/kg, c15 overall N=20
[2] = G4, cols c2,4,6,8,10,12,14=0.03,0.1,0.3,1,3,5,10 mg/kg, c16 overall N=20
[3] = G4, cols c2,4,6,8,10,12,14=0.03,0.1,0.3,1,3,5,10 mg/kg, last col overall N=20

Protocol: The phase 1a dose escalation study in US (ClinicalTrials.gov Identifier: NCT03707093) included accelerated titration (0.03, 0.1 and 0.3 mg/kg) and conventional dose escalation (1, 3, and 10 mg/kg). The phase 1a dose escalation study in China (ClinicalTrials.gov Identifier: NCT03802955) included accelerated titration (0.1 mg/kg) and conventional dose escalation (0.5, 1.5, 3, 5, and 10 mg/kg). […] Patients with advanced or metastatic solid tumors and/or non-Hodgkin lymphoma who were refractory or relapsed and exhausted all available therapies were enrolled and received treatment until disease progression, intolerable toxicity, withdrawal with consent, or for a maximum of 24 months.
Dose expansion studies were conducted for dose levels that were proven tolerable in Phase 1a and with evidence of clinical or biological activity. The dose levels studied in Phase 1 b were 3 mg/kg and 5 mg/kg.

ADG106: fully human agonistic anti-CD137 monoclonal IgG4 antibody; heavy chain SEQ ID NO: 10, light chain SEQ ID NO: 11
TEAE white blood cell count increase (China update, 57 patients): 21%
patients with G3 to 4 TEAEs (China update, 21 patients): 35%
SAEs (all causes) (China update, in 11 patients): 15
Lab abnormality Leukocyte ↓, patients [1]: 0
Lab abnormality Neutrophil ↓, patients [1]: 0
Lab abnormality Platelet ↓, patients [1]: 0
TEAE Arthralgia, patients [1]: 0
TEAE Constipation, patients [1]: 0
TEAE Cough, patients [1]: 0
TEAE Dehydration, patients [1]: 0
TEAE Fever, patients [1]: 0
TEAE Hypothyroidism, patients [1]: 0
TEAE Myalgia, patients [1]: 0
TEAE Peripheral edema, patients [1]: 0
TEAE Weight ↓, patients [1]: 0
Lab abnormality Hemoglobin ↓, patients [2]: 0
Lab abnormality Leukocyte ↓, patients [2]: 0
Lab abnormality Neutrophil ↓, patients [2]: 0
Lab abnormality Platelet ↓, patients [2]: 0
TEAE (preferred term not given), patients [3]: 0
TEAE AST increase, patients [3]: 0
TEAE Anemia, patients [3]: 0
TEAE Appetite ↓, patients [3]: 0
TEAE Arthralgia, patients [3]: 0
TEAE Constipation, patients [3]: 0
TEAE Cough, patients [3]: 0
TEAE Dehydration, patients [3]: 0
TEAE Diarrhea, patients [3]: 0
TEAE Dyspnea, patients [3]: 0
TEAE Fever, patients [3]: 0
TEAE Hypothyroidism, patients [3]: 0
TEAE Lymphopenia, patients [3]: 0
TEAE Myalgia, patients [3]: 0
TEAE Peripheral edema, patients [3]: 0
TEAE Respiratory failure, patients [3]: 0
TEAE Tumor pain, patients [3]: 0
TEAE Vomiting, patients [3]: 0
TEAE Weight ↓, patients [3]: 0
>=G3 adverse events (Overall N=40): 15 n (%)
Any Drug Related TEAEs (Overall N=40): 26 n (%)
Any SAE (Overall N=40): 10 n (%)
Any TEAEs Leading to Study Drug Discontinuation (Overall N=40): 5 n (%)
Any TEAEs leading to Study Drug Dose Reduction or Interruption (Overall N=40): 1 n (%)
Any TEAEs with Outcome of Death (Overall N=40): 2 n (%)
Drug Related SAE (Overall N=40): 4 n (%)
SAE leading to Drug discontinuation (Overall N=40): 3 n (%)
Any DLTs (Overall N=40, first 2 cycles): 3 n (%)
≥Grade 4 TEAEs (Table 6 population): there was no≥Grade 4 TEAEs
dose below which ≥G3 treatment related AEs were not observed (US and China trials): less than 3 mg/kg
total dose at which ADG106 was well tolerated (US and China trials): below 500 mg
dose at which DLT occurs, by body weight (US and Chinese patients): around 10 mg/kg
total dose at which DLT occurs (US and Chinese patients): ~500 mg
tolerability of flat Q3W IV dose of 300 mg and 400 mg (US trial): safe and well tolerated
G3 ALP increase (US update): 2/35
G3 GGT increase (US update): 3/35
G3 or G4 decreases of leukocytes, platelets, and neutrophils (US update): There was no G3 or G4 decreases
G4 drug-related TEAEs (US update): there was no G4 drug-related TEAEs
Grade 3 AE anemia (US update): 2/35
Grade 3 AE decreased appetite (US update): 2/35
Grade 3 AE dyspnea (US update): 2/35
Grade 3 AE fatigue (US update): 5/35
Grade 3 AE tumor pain (US update): 1/35
Grade 3 AE vomiting (US update): 1/35
Grade 3 drug-related TEAE AST increase (US update): 1/35
Grade 3 drug-related TEAE adrenal insufficiency (US update): 1/35
Grade 3 drug-related TEAE anemia (US update): 1/35
Grade 3 drug-related TEAE decreased appetite (US update): 1/35
Grade 3 drug-related TEAE dyspnea (US update): 1/35
Grade 3 drug-related TEAE fatigue (US update): 3/35
Grade 3 drug-related TEAE influenza like symptoms (US update): 1/35
DLTs observed (US update Nov. 30, 2020, 7 dose escalation cohorts 0.03-10 mg/kg Q3W): 2
AE anemia, regardless of causality (US update, 35 patients): 11%
AE arthralgia, regardless of causality (US update, 35 patients): 14%
AE decreased appetite, regardless of causality (US update, 35 patients): 20%
AE dehydration, regardless of causality (US update, 35 patients): 14%
AE dizziness, regardless of causality (US update, 35 patients): 11%
AE dyspnea, regardless of causality (US update, 35 patients): 11%
AE fatigue, regardless of causality (US update, 35 patients): 29%
AE nausea, regardless of causality (US update, 35 patients): 23%
AE peripheral edema, regardless of causality (US update, 35 patients): 14%
AE tumor pain, regardless of causality (US update, 35 patients): 11%
AE vomiting, regardless of causality (US update, 35 patients): 14%
ALT increased, all grade (US update, 35 patients): 23%
AST increased, all grades (US update, 35 patients): 43%
albumin decreased, all grade (US update, 35 patients): 57%
hemoglobin decrease, all grades (US update, 35 patients): 89%
lymphocytes decrease, all grades (US update, 35 patients): 57%
patients discontinued due to adverse events (US update, 35 patients): 9%
total bilirubin increased (US update, 35 patients): 6%
SAEs related to the study treatment (US update, in 3 patients): 4
SAEs (all causes) (US update, in 13 patients): 17
TEAE anemia, regardless of causality (most common TEAEs (≥10%)): 10%
TEAE arthralgia, regardless of causality (most common TEAEs (≥10%)): 10%
TEAE decreased appetite, regardless of causality (most common TEAEs (≥10%)): 10%
TEAE dyspnea, regardless of causality (most common TEAEs (≥10%)): 10%
TEAE lymphopenia, regardless of causality (most common TEAEs (≥10%)): 15%
TEAE respiratory failure, regardless of causality (most common TEAEs (≥10%)): 10%
drug related death (up to 10 mg/kg): no drug related death
